# Reference: patent publication US20200002432A1, “ANTI-CD98 ANTIBODIES AND ANTIBODY DRUG CONJUGATES” (AbbVie Inc., priority 2016, published 2020)
# Substitutions are numbered along the chain they refer to.
# T1: human CD98 ECD (huCD98 ECD) (Homo sapiens, UniProt P08195)
# T1 construct: His6 (with AAA linker) (C)
# T1 sequence (P08195 with tags, fused parts or gaps): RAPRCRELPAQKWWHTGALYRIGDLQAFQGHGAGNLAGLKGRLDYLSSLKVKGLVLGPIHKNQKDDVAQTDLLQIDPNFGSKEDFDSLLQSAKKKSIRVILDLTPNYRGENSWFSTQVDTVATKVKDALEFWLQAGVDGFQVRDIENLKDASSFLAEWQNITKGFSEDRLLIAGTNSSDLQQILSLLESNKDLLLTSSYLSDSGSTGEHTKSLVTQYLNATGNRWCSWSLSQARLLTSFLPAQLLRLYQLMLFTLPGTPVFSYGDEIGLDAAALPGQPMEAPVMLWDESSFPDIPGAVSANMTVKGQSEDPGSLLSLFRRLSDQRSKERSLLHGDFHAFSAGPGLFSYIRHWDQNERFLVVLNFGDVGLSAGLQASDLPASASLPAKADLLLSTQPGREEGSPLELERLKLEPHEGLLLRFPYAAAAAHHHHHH
# T2: human CD98 (Homo sapiens, UniProt P08195)
# T2 sequence (P08195 1-630 isoform P08195-1): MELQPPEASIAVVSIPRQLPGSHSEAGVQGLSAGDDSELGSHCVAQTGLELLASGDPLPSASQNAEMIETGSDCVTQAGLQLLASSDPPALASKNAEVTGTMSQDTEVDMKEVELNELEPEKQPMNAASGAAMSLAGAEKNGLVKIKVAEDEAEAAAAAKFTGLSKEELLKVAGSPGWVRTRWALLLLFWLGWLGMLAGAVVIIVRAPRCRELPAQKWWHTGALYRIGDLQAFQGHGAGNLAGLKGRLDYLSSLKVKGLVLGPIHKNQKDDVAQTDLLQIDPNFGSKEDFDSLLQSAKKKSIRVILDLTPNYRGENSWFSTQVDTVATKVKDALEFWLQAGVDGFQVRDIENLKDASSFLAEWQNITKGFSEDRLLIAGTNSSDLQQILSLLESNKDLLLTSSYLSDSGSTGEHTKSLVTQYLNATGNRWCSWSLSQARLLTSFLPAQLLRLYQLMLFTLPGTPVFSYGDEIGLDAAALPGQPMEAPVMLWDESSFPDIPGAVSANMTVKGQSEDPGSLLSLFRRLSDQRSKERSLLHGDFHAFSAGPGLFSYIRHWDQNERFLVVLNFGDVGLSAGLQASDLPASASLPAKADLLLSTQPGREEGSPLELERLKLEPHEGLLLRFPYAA
# B1: huAb101: humanized framework engineered anti-CD98 antibody; heavy chain variable SEQ ID NO: 106, light chain variable SEQ ID NO: 107 (antibody, V domains shown)
# VH: EVQLVESGGGLVKPGGSLRLSCATSGFTFIDYYMSWVRQAPGKGLEWLGFIRNKANRYTTEYSASVKGRFTISRDNSKSILYLQMNSLKTEDTAVYYCTRDRPAWFVYWGQGTLVTVSS
# VL: DIVMTQTPLSLPVTPGEPASISCKSSQSLLYSSNQKNYLAWYLQKPGQSPQLLIYWASTRESGVPDRFSGSGSGTDFTLKISRVEAEDVGVYYCQQYYSYPYTFGGGTKVEIK
# B2: huAb105: humanized framework engineered anti-CD98 antibody; heavy chain variable SEQ ID NO: 111, light chain variable SEQ ID NO: 112 (antibody, V domains shown)
# VH: EVQLVESGGGLVQPGGSLRLSCAASGFTFSDYTMAWVRQAPGKGLEWVATIIYSGRGTYYRDAVKGRFTISRDNAKNTLYLQMNSLRAEDTAVYYCARQSDHTYYYWGYFDYWGQGTMVTVSS
# VL: B1 VL with S22N, Y31F, S33G, E61Q, V91I, S99D, Y100V, G106Q, V110L
# B3: huAb107: humanized framework engineered anti-CD98 antibody; heavy chain variable SEQ ID NO: 114, light chain variable SEQ ID NO: 112 (antibody, V domains shown)
# VH: B2 VH with H102D
# VL: B1 VL with S22N, Y31F, S33G, E61Q, V91I, S99D, Y100V, G106Q, V110L
# B4: huAb109: humanized framework engineered anti-CD98 antibody; heavy chain variable SEQ ID NO: 116, light chain variable SEQ ID NO: 117 (antibody, V domains shown)
# VH: B2 VH with S54D, G55A, H102D
# VL: B1 VL with S22N, Y31F, S33G, E61Q, V91I, Y100S, G106Q, V110L
# B5: huAb103: humanized framework engineered anti-CD98 antibody; heavy chain variable SEQ ID NO: 109, light chain variable SEQ ID NO: 107 (antibody, V domains shown)
# VH: B1 VH with N56Y, R57G
# VL: B1 VL
# System: cynomolgus monkey CD98 ECD (cyCD98 ECD)
# Sequence (as listed by the source): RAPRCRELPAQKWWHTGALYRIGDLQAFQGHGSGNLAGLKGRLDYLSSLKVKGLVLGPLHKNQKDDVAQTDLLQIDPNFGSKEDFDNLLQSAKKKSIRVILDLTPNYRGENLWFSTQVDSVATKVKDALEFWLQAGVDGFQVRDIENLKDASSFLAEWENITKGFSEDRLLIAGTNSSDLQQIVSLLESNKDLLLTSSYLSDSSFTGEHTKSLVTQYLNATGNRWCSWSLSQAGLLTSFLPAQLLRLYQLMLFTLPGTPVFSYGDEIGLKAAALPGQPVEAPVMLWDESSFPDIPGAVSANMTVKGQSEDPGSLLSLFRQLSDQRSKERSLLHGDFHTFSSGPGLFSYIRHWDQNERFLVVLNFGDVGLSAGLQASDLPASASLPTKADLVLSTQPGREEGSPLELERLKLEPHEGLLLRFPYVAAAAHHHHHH
# Test: Biacore surface plasmon resonance binding kinetics, anti-Fc capture
# Conditions: framework re-engineered mAbs, Table 24
# Protocol: (§1) The binding kinetics of these purified mouse and rat monoclonal anti-CD98 antibodies for purified recombinant CD98 protein (extracellular domain, ECD) were determined by surface plasmon resonance-based measurements made on Biacore T100/T200 instruments (GE Healthcare, Piscataway, N.J.) at 25° C. using an anti-Fc capture assay approach. Binding kinetic measurements were made in the assay buffer HBS-EP+: 10 mM Hepes, pH 7.4, 150 mM NaCl, 3 mM EDTA, 0.05% Tween 20). For example, approximately 8000 RU of anti-Fc (species specific) polyclonal antibody (Thermo Fisher Scientific Inc., Rockford, Ill.) diluted in 10 mM sodium acetate (pH 4.5) was directly immobilized across a CM5 research grade biosensor chip using a standard amine coupling kit according to manufacturer's instructions and procedures at 25 μg/ml. Unreacted moieties on the biosensor surface were blocked with ethanolamine. The test antibody to be captured as a ligand was diluted in running buffer to ˜0.5 μg/mL and injected over anti-Fc surface at a flow rate of 10 μL/min. CD98 binding and dissociation were observed under a continuous flow rate of 80 μL/min. Human and cynomolgus monkey CD98 ECDs, both with a C-terminal His-tag, are used for this study (Table 3). After each cycle the anti-Fc capture surface was regenerated using 10 mM Glycine-HCl, pH 1.5. During the assay, all measurements were referenced against the capture surface alone (i.e., with no captured test antibody) and buffer-only injections (no antigen) were used for double referencing. For kinetic analysis, rate equations derived from the 1:1 Langmuir binding model were fitted simultaneously, globally and with mass transfer term included to multiple referenced antigen binding curves using Biacore T100/T200 Evaluation software.
# (§2) The in vitro binding activities of the recombinant anti-CD98 chimeric mAbs were measured against both recombinant CD98 extracellular domain proteins (ECDs) and CD98-expressing cells. Briefly, binding kinetics of anti-CD98 chimera mAbs for human and cynomolgus CD98 ECDs were determined by surface plasmon resonance-based measurements as described in Example 4. Table 10 reported the association and dissociation rate constants for CD98 binding, ka (M^−1s^−1) and […], and the equilibrium dissociation constant KD (M) of the interaction between antibodies and the target antigen. Binding of anti-CD98 chimera mAbs for CD98 on cell surface was evaluated by flow cytometry against CHO-K1 cell line stably transfected to express human CD98 and 3T12 cell line stably transfected to express cynomolgus monkey CD98. Data was analyzed using Graphpad Prism software and EC50 values were reported as the concentration of antibody to achieve 50% of maximal binding to CD98-expressing cells (Table 10).
# (§3) The binding kinetics of the recombinant anti-CD98 chimeric antibodies for purified recombinant CD98 protein (extracellular domain. ECD) were determined by surface plasmon resonance-based measurements, as described in the Example 4.
Molecule,"ka, cynoCD98 ECD [M⁻¹ s⁻¹]","kd, cynoCD98 ECD [s⁻¹]"
B1,30000,0.00067
B2,38000,5.3e-05
B3,33000,8.7e-05
B4,26000,0.00031
B5,31000,0.00044

# Molecular target: T1, human CD98 ECD (huCD98 ECD)
# Test: as above
# Conditions: framework re-engineered mAbs, Table 24
# Protocol: as §1, §2, §3
Molecule,"ka, huCD98 ECD [M⁻¹ s⁻¹]","kd, huCD98 ECD [s⁻¹]"
B1,290000,0.0018
B2,140000,2.4e-05
B3,110000,3.8e-05
B4,160000,0.00017
B5,180000,0.00059

# Molecular target: T2, human CD98
# Test: Binding of humanized anti-CD98 antibodies to human CD98
# Conditions: humanized variants of huAb3/huAb15 and framework engineered antibodies
row,Molecule,binding to human CD98
1,B1,maintained binding to human CD98
2,B2,maintained binding to human CD98
3,B3,maintained binding to human CD98
4,B4,maintained binding to human CD98
5,B5,maintained binding to human CD98
